Publication doi:10.1101/207324

Assays:
human S100A5 (human) = target: T1, human S100A5 (human); assay: ITC
T1 sequence (P33763 1-92, looked up): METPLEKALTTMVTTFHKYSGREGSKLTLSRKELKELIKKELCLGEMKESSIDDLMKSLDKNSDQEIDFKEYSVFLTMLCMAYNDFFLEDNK

human S100A6 (human) = assay: ITC

Substance: peptide from Siah-interacting protein (SIP) (from UniProt Q9HB71 188-218)
- Kd (human S100A5 (human)): > 100 µM
- Kd (human S100A6 (human)): 20 µM
